{
  "source": "ChEMBL document CHEMBL5257037",
  "about": "“Side Chain Cyclized Aromatic Amino Acids: Great Tools as Local Constraints in Peptide and Peptidomimetic Design” (J Med Chem, 2016)",
  "substrate": "CC[C@H](C)[C@H](NC(=O)[C@H](Cc1cnc[nH]1)NC(=O)[C@H](Cc1ccccc1)NC(=O)OCc1ccccc1)C(=O)O",
  "experiment": "Binding affinity to angiotensin-converting enzyme (unknown origin) assessed as Km",
  "settings": "Homo sapiens",
  "data": [
    {"protein": "Angiotensin-converting enzyme (Homo sapiens), P12821 (protein) MGAASGRRGPGLLLPLPLLLLLPPQPALALDPGLQPGNFSADEAGAQLFAQSYNSSAEQVLFQSVAASWAHDTNITAENARRQEEAALLSQEFAEAWGQKAKELYEPIWQNFTDPQLRRIIGAVRTLGSANLPLAKRQQYNALLSNMSRIYSTAKVCLPNKTATCWSLDPDLTNILASSRSYAMLLFAWEGWHNAAGIPLKPLYEDFTALSNEAYKQDGFTDTGAYWRSWYNSPTFEDDLEHLYQQLEPLYLNLHAFVRRALHRRYGDRYINLRGPIPAHLLGDMWAQSWENIYDMVVPFPDKPNLDVTSTMLQQGWNATHMFRVAEEFFTSLELSPMPPEFWEGSMLEKPADGREVVCHASAWDFYNRKDFRIKQCTRVTMDQLSTVHHEMGHIQYYLQYKDLPVSLRRGANPGFHEAIGDVLALSVSTPEHLHKIGLLDRVTNDTESDINYLLKMALEKIAFLPFGYLVDQWRWGVFSGRTPPSRYNFDWWYLRTKYQGICPPVTRNETHFDAGAKFHVPNVTPYIRYFVSFVLQFQFHEALCKEAGYEGPLHQCDIYRSTKAGAKLRKVLQAGSSRPWQEVLKDMVGLDALDAQPLLKYFQPVTQWLQEQNQQNGEVLGWPEYQWHPPLPDNYPEGIDLVTDEAEASKFVEEYDRTSQVVWNEYAEANWNYNTNITTETSKILLQKNMQIANHTLKYGTQARKFDVNQLQNTTIKRIIKKVQDLERAALPAQELEEYNKILLDMETTYSVATVCHPNGSCLQLEPDLTNVMATSRKYEDLLWAWEGWRDKAGRAILQFYPKYVELINQAARLNGYVDAGDSWRSMYETPSLEQDLERLFQELQPLYLNLHAYVRRALHRHYGAQHINLEGPIPAHLLGNMWAQTWSNIYDLVVPFPSAPSMDTTEAMLKQGWTPRRMFKEADDFFTSLGLLPVPPEFWNKSMLEKPTDGREVVCHASAWDFYNGKDFRIKQCTTVNLEDLVVAHHEMGHIQYFMQYKDLPVALREGANPGFHEAIGDVLALSVSTPKHLHSLNLLSSEGGSDEHDINFLMKMALDKIAFIPFSYLVDQWRWRVFDGSITKENYNQEWWSLRLKYQGLCPPVPRTQGDFDPGAKFHIPSSVPYIRYFVSFIIQFQFHEALCQAAGHTGPLHKCDIYQSKEAGQRLATAMKLGFSRPWPEAMQLITGQPNMSASAMLSYFKPLLDWLRTENELHGEKLGWPQYNWTPNSARSEGPLPDSGRVSFLGLDLDAQQARVGQWLLLFLGIALLVATLGLSQRLFSIRHRSLHRHSHGPQFGSEVELRHS", "values": [
      {"measurement": "Km", "result": 0.01, "unit": "µM"}
    ]}
  ]
}
